Assay results as given in the DeepSol protein solubility set.

experiment: soluble on expression in E. coli; label from the status in PepcDB or PDB records

Sequence	soluble on expression in E. coli
MGSDKIHHHHHHMNVLYVTVDALRADHVTPELMPNVSGFVDRSIEYERCYANGPGTPWSFPALLGSQYSGANDGVGIPGEDDSRPTLAEVLRDEGYETAGFTDNHFASSDYNYDRGMTTMFDAGATSSEKRLKQAVRKRLDHDGTLYQMLLRGHHLIDDLLVKIQGRDTRFTRAETLIDSLVDWIDERNDQWFAWLHPMDTHAPYEAPDDYQEQFLDEPIPRRRSQKLARKATHHPDELSDDEWELQQQLYKAECSYLDDQIGRLLDSFPEPERENTLLVFTADHGEMHGEHGLGGHPQQFWEEVIHVPCAISAPGFEATTVNEQAALIDIPPTILDAVGIDAPEYWDGMSVLPDEGTVQEREYVFVDVESELNRNHAGVRRSDNWKLMRHDDEGELLLDLDTNPEEDPEQTRLNDAPEAYRALTDSLDNHLDEMERRRSGETSGIEDEELIEDHLRELGYLE	not soluble
MGSDKIHHHHHHMNVSIRLPRFEFDDKILEQGAEISRRLNQLRMEKFPPNATKTLRTFSMAEVAHYLGVSQNNLKRLHLEGKGPLPDQSPSGRRSYTATQMLELRQFLDQHGRTEVKKYVPHRKLGDKLQVVAVVNFKGGSGKTTTAAHLAQHLALTGHRVLAIDLDPQASLSALHGFQPELDRNLSLYEAIRYDDERRSIADVIIPTNFPGLDIIPANLELQEYEYDTPLAMQDKTSSAGRQFFTRMAKALSEVDDRYDVVVVDCPPQLGYLTLTAMSAATSVLITVHPQMLDLMSMSQFLLMLGGILKTIKAAGAAIELDWFRYLITRYEPTDIPQAQMVGFMQSMLAGQILENPMLKSTAISDAGLTKQTLYEVEKSAFTRSTYDRALESLDAVNAEIVTLIHRAWGRS	not soluble
MGSDKIHHHHHHMNVVVQKYGGSSVATPERIKNVAQRIKKKVDEGYKVVVVVSAMGKTTDNLIKLAKEISPRPDSRELDMLLATGEQVSAALLSMALKDLGVKAKSLNAFQVKIKTTPHHTSARIVDIDDSVIRENLKDYDVLVVTGFQGVNEHGDLTTLGRGGSDTSAVALAAKLRVPCEIYSDVDGIYTCDPRVHPRAKKLAYITYDEALELTALGAKVLHSRSVEIAKKYGIPIYCASSFTEEEGTMVVERLPEWLEEPVVTGATISHGQIKVSISFLPKDVKYITAIFEEVGKRALNVDMISLVPSNGKVFLSFTILEDHKEDLDEALKEALRDVEGWKSTYEGGFAKLSIVGVGMRTSPGVAARFFEALERAGVTPELVTTSEIKISCLVPEEKAEEALKSVIEEFEL	not soluble
MGSDKIHHHHHHMNWKVTIKNTIEELAKLKKDVKIENEGDPEHELSDAEDKVMKIELEEEFKPTMYSLYEFKSLNDKRIASIDSSSRYLRDFSVNTCLIGLSVYSNREGFIDGPFTVDIPYIGISSYREILESLKIDDINVRYKNVVNYYYVNEPNNEYKIDDIADELRLEAENVGLKRVIQNHDIVIIDGPIYPTPLELTEEINLETEARRKHRLAYAKLVNERIELLNNNVIGVVKRLENSKKLWRVKEINETIGNVKRMKDVTIIELIDERLCRKNYEYVCTIGPFKIEYALEVKDEDGRNVIEKVPTKYAYYVIIRKKYFPPTFLRIESTNKNLDISPVLSRLTERLMPTYIEIVDRRSKRISASLFLYAYEIASNYLNIIHDDKMGYLSVISQFTSE	not soluble
MGSDKIHHHHHHMNYPFIYPGAIHMHTTYSDGSATFPHLIAAAREAGLRWVIVTDHDTLEGLPFAGWHDDVLVIVGHEITPDHNHFLALNVDTVISNELPPQQFIDEVYQRGGFGIIAHPDERVRNSFKDIYRWDDWTIDGPSQRTGRVVGLELWNFMSDWGEHLTERNKLALVLYPQLGLSGPTLATLAWWDRLNMVGRRTFGIGGVDAHGFKRKAPWGEIEVFPYPWIFRTLTNYLLLPEPLSSDATTATNQVYAALTAGRCYFVNRLDGDAPSIIFRLSRPGDLAEIGDTISLAGGPLLVEVDVGADAYARLIVNGEVMTSGIRRIRQTVTDDGVYRVEAYWGGKPWLFTNPIFVTAADAGREGSL	not soluble
MGSDKIHHHHHHMNYTKMRGVEEKLVESIVRRTIDTAEARLRKYVFTPTGEKRPERKPLAKLKEEIESFLRTRENKLLVLYGLRGVGKTTMLAQIYFKLLPQIPRERLVYVSLDKLRPLGISLNYFVQAYERLLGERIEEFSQPTFLFIDEAHYDENFGITVKDLYDSASNLMIVVTGSSSLPLKLDPDLMRRAKKLRVPPLTFTEYLLLKRGLQIPEELSAALKHAFLNCDFSGVEEKLDGVLLKFTEKDVEDYLIQGSLPIYLTSKNPLEDAYEILRKIVEVDLVLEGLSETTREKALGLLLLLASGESLAYDELSSTLGLAKGTVEKLIEKLEDLEVIFPVRAYGSLGKVARKTPKYKFLAPMLRSAVLYEFGLFERDSKTLGMLLEDAVALYLHLLAKEKKLGLHYDAQKGGADFILKGQSRGIVIEVGWGKKGLRQVIKTMKKTGLNCGVVIYNGPLKKKGEVWFVPRELFLLML	not soluble
MGSDKIHHHHHHMNYTQGSLFENIENIPLAGRMRPRNLSDYIGQEHILEKGKALRNMLEKDSITSMILWGPPGVGKTTLAMIIASTTKCNFVEFSAATSGIKEIKDIMIKAEKDRLFGIRTLLFIDEIHRFNKSQQDTFLPHVEKGDIILIGATTENPSFEVNSALLSRCRVFVLKPLSNNDIVKLLKNALTDTRGFKNKNIQISEDLLTLIAVYSNGDARTALNVLEMAVLSSKLEHGVVTINKGILEDCMQNKALIYDKNGEEHYNLISALHKSMRNSDVDAAIYWLARMLEGGEDPLYIARRLIRFSSEDIGVADTNALNVTVNVYNSCHYIGMPECSVNLTEAVVYLSLAPKSNSIYMAYEKAKKDAKETLASGVPLHLRNAPTKLMSDLGYSKGYKYAHDFDNKVVDMQCLPDNLKDEKYYFPTTEGREKLFKERLHYIKKKKHTVNKSI	not soluble
MGSDKIHHHHHHMPATFAHCLLAREAMERFGKSKLFPGVLKTKNHFVVMGATGPDYPYLTDVMKYGVLHIGHNWANRMHYENIDGFILEGIKKLSSMNKTSEEFKNCLAWFSGYVSHVVADSYLHPVVNSTVHGIYLFTNEKHGRCELVQDIYIFKKMTDTDICAAAARDRNSFGYLSILDDCSDPQDLDKIHPHIRVFWSELLKAAHPYASDYFGDLNLDEWHKNYKGRVDFAADSQSIFRHVLDIANAPRYVPWTASSISKEERSKYIDNVETPRGTKQSYDTLFSLVADQIAATWNALFPYIKNGQVPPATLVKDWNLDTGVDESKIDFWKEA	not soluble
MGSDKIHHHHHHMPETLNLNYYYGNEADQYSFYRIPKTLLTDRRYKGVSLEAKVLYGLLLDRMGLSARNGWLDNNGRVFLYFTQEEAMTMLGCGKDKVTKLFRELEGIGLMERKKQGQGHPARIYVKNFILEPEPTAPVQTAENQQSRPLPSAAVKTAEKPQSAPRKTSGQECGISAPNNTDINKTEKSDTDLSILPPTPSAVSSPAGKRAPRRMGLDEMESYRELIMENIDYDILLERYPYEKDLLDGYVELMLEVCCSTRESVRICGQEVPTEVIKSRFLKLNSEHIGYVMDSLKSNTAKIGNIKAYTLAALYNAPVTMGQYYTSLVSHDMAHGLLSG	not soluble
MGSDKIHHHHHHMPFVFACLSIKIPRKGTVMAEPLATTPIRYSFGADEHLFAEVSESMSLEAFFKGMAVTRAVERMALDGVLDVCLANASFQVRFDPDRIAPEALLEAVRGAEAQAVAERSLQTRIIEIPVLYNDPWTHETLMRFRDRHQDPTSTDLEYAARINGLADVEAFIAAHSGAPWFVSMVGFVAGLPFMFQMVERERQLQVPKYLRPRTDTPKLTLGHGGCFGCIYSVRGAGGYQMFGVTPAPIYDPQQTLNYLKEHMVFFRPGDIVQFKPIDRRTYDQAVAEVEDGCFDLRIRPVAFSLDAFLADPVGYPKSLQEVLA	not soluble
MGSDKIHHHHHHMPFVRLDVRRPGHADRIVYVPVTTRTSYLLKSSEGGMVLRFDRGDVVAARVRPLNIGDVGALLSRRRRHKRFQLPLGRGAVLQPLLHISGPEGRELARALGSLAGWGFGTASDNLQKTLSRHFNGPQAEAPERLPTVEPKIAVALHLHYPDLWPEFEALLEATGRQFQLFLTLTRPDAALAQRVQARFPGAEITVYENRGRDVGPFIQLLREGKFDPFDLICKLHGKKSGQSGPRMVLGEIWRQVSAFDLIGSRGVVDRIIANFERSPDTQMIGSRRFRLPNEWKGEKSAWGENRAMALNLLETMGMPSSSRLDFFAGTMFWVRRGALEPLRRLDLPLAAFPEETGQQDGTLQHALERVLGMICTKIGVASDGDMTTDSREADPIG	not soluble
MGSDKIHHHHHHMPGICLCFQVHRPVILKRYTFFDIGRHHLYEDQEANRRILNQLADSCYLPANRLLLRLMEKSEGRFRVAFALSGAMIHLCEKYRQDIMEGFRRLADTGCVEFLNEADPHSLAFLFSPREFREQIEAHKKKIQELFGQNPTTFHCTDLIYSNELAGVAEEMGHSAFLAEGGQGLPGFQGPDFVYQPADCARLKLLLRNYHLSADIRLHFSDGSRNGHPFPAGWFAERILHSLENSGGQVVNLFLDYETSGKYLTPDRGNSEFLQALSAEMLGQPDFHFQLPAEIAQRYDPQARLDVTDSASGFDIHRNLTTVAGNAMQQDALRVLYDLEEAVRKRKDADCLAIWRMLQTSDYFNYMCTEGFADRVRRRDSGPYGSPYESYINYMNILEDFSRTLQS	not soluble
MGSDKIHHHHHHMPGTAARPAPIRVTYAEVMQRIIGTEVEYGISSPSDPTANPILTSTQAVLAYAAAAGIQRAKRTRWDYEVESPLRDARGFDLSRASGPPPVVDADEVGAANMILTNGARLYVDHAHPEYSAPECTDPLDAVIWDKAGERVMEAAARHVASVPGAAKLQLYKNNVDGKGASYGSHENYLMSRQTPFSAVIAGLTPFLVSRQVVTGSGRVGIGPSGDEPGFQLSQRADYIEVEVGLETTLKRGIINTRDEPHADADKYRRLHVIIGDANLAETSTYLKLGATSLVLDLIEEGMDLSDLALARPVHAVHVISRDPSLRATVAMADGRELTALALQRIYLDRVAKLVDSRDPDPRAAHVVETWAEVLDLLERDPMECAEILDWPAKLRLLEGFRHRENLGWSAPRLHLVDLQYSDVRLDKGLYNRLVARGSMKRLVTEQQVLDAVDSPPTDTRAYFRGECLRRFGADIAAASWDSVIFDLGGDSLVRIPTLEPLRGSKAHVGALLDSVDSAVQLVEQLTAT	not soluble
MGSDKIHHHHHHMPHHQYVLTLSCPDRAGIVSAVSTFLFENGQNILDAQQYNDTESGHFFMRVVFNAAAKVIPLASLRTGFGVIAAKFTMGWHMRDRETRRKVMLLVSQSDHCLADILYRWRVGDLHMIPTAIVSNHPRETFSGFDFGDIPFYHFPVNKDTRRQQEAAITALIAQTHTDLVVLARYMQILSDEMSARLAGRCINIHHSFLPGFKGAKPYHQAFDRGVKLIGATAHYVTSALDEGPIIDQDVERISHRDTPADLVRKGRDIERRVLSRALHYHLDDRVILNGRKTVVFTD	not soluble
MGSDKIHHHHHHMPIHLIWGNDYEACNREIEELINSVIDSSWKSFNYSQLDGNDPKQNLRALEEAQSAPLGSGGRIVLVRRSPFCNGCSIELGNKLEQVIKLIPDKTHLILSNANKPDKRLKTTKLIEKSIQSNTLSQEKSFILPLPWDINGQRNLVKNNLERLNLKMNYETIDLIVESIGNDSSLINTELQKLSLFSEAVNTNLTTDKPREISKELVKKLIQNNSTNALEIANSLLKGEKIIALNKIQSLLKNGEPALRLITTLTGQSRGWLWVHLLDSQGNQDVKEIAKLAGIANPKRIFVIRKQIQGKSLGTLLELMKKLLKIEASIKSGIKPIDSFKDNLLTDSKILANN	not soluble
MGSDKIHHHHHHMPIKSRAVVIPKRNTIEIRTVQVNEPKAGDVLIKTAFTSISAGTERMLLDGRLPQPQLLFPVVPGYETVGQVVQVGSKAPKELLGQWVYIGGARCFRGVNAAWGGQSEYITAEHERVVPLGSLDPATGVLLALAATALHGIKIGQIRRSDRVLVLGQGIVGQLAARLAKYAGAQHVAVADRVAVRLQASQADQVIDVTRESLDEAIGEAKVDVLIEATGSMGALSGALPLLANHGRVVLLGYYDHINIPYAPVFMREAQILVAREWEFGPDGDLPRVRDLLANGDLKVDGLLTHHVPLDRIQAAYRLAPGRPGLFEGCCHVAAKRYRRSVVLTRQGAMRISLEREMALCPPIQKRNNQVQQHECSPSTAKAAWENHSSPPIW	not soluble
